Test results reported in patent US20170269069.

How the values were obtained:
[1] = test system: rH3 K9 trimethyl-lysine analogue
[2] = test system: reconstituted native nucleosome arrays (modified native histones purified from HeLa cells)
[3] = test system: rH3 K36 trimethyl-lysine analogue
[4] = test system: rH3 K4 trimethyl-lysine analogue
[5] = test system: H3 peptide (aa10-35) K18ac
[6] = test system: rH3 K27 dimethyl-lysine analogue
[7] = test system: rH3 K9 monomethyl-lysine analogue
[8] = test system: nucleosome arrays containing unmodified rH3
[9] = test system: rH3 K27 monomethyl-lysine analogue
[10] = test system: rH3 K9 dimethyl-lysine analogue
[11] = test system: rH3 K36 monomethyl-lysine analogue
[12] = test system: rH3 K18 acetyl-lysine analogue
[13] = test system: nucleosome arrays containing the rH3 K18 acetyl-lysine analogue
[14] = test system: rH3 K36 dimethyl-lysine analogue
[15] = test system: rH3 K27 trimethyl-lysine analogue
[16] = test system: recombinant histone H3, wild type
[17] = test system: rH3 K4 dimethyl-lysine analogue
[18] = test system: rH3 K4 monomethyl-lysine analogue

recombinant MMP-9 (aa115-730), sequence (chain, as listed by the source): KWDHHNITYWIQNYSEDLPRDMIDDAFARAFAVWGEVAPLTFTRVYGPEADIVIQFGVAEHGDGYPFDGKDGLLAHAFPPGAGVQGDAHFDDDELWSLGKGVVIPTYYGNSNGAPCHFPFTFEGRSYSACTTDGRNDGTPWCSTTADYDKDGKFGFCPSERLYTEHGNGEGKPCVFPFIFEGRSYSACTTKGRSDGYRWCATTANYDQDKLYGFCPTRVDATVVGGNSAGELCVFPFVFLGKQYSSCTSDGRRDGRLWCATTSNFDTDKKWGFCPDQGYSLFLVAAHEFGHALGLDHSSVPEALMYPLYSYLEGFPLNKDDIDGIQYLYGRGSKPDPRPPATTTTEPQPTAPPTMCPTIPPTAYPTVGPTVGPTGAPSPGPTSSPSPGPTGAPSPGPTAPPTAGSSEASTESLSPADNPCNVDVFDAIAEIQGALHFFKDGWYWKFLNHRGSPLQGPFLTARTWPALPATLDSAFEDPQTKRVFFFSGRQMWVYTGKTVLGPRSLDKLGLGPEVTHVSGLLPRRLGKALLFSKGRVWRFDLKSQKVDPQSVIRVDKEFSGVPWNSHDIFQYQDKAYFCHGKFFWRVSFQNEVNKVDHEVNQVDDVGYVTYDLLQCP

Row | Substance | MMP-9 activity (in vitro H3NT cleavage assay) [1] | rMMP-9 protease activity (in vitro H3NT cleavage assay) [2] | MMP-9 activity (in vitro H3NT cleavage assay) [3] | MMP-9 activity (in vitro H3NT cleavage assay) [4] | cleaved H3 (peptide hydrolysis measured with fluorescamine; kinetic analysis), against unmodified H3 or H3K27me1 peptides [5] | MMP-9 activity (in vitro H3NT cleavage assay) [6] | MMP-9 activity (in vitro H3NT cleavage assay) [7] | rMMP-9 protease activity (in vitro H3NT cleavage assay) [8] | MMP-9 activity (in vitro H3NT cleavage assay) [9] | MMP-9 activity (in vitro H3NT cleavage assay) [10] | MMP-9 activity (in vitro H3NT cleavage assay) [11] | H3NT proteolysis (in vitro H3NT cleavage assay) [12] | H3NT cleavage (in vitro H3NT cleavage assay) [13] | MMP-9 activity (in vitro H3NT cleavage assay) [14] | MMP-9 activity (in vitro H3NT cleavage assay) [15] | H3NT protease activity (in vitro H3NT cleavage assay, Western blot with the H3CT antibody) [16] | MMP-9 activity (in vitro H3NT cleavage assay) [17] | MMP-9 activity (in vitro H3NT cleavage assay) [18]
1 | recombinant MMP-9 (aa115-730) | nearly identical to rH3 control in all cases | rMMP-9 displayed robust activity for modified native nucleosome arrays | nearly identical to rH3 control in all cases | nearly identical to rH3 control in all cases | 3-fold increase of cleaved H3 compared to unmodified H3 or H3K27me1 peptides | nearly identical to rH3 control in all cases | nearly identical to rH3 control in all cases | completely resistant to rMMP-9 protease activity | nearly identical to rH3 control in all cases | nearly identical to rH3 control in all cases | nearly identical to rH3 control in all cases | the specific acetylation of K18 robustly increased H3NT proteolysis by rMMP-9 | the specific acetylation of H3K18 was both necessary and sufficient for H3NT cleavage by rMMP-9 in a nucleosome array context | nearly identical to rH3 control in all cases | nearly identical to rH3 control in all cases | only rMMP-9 possessed H3NT protease activity | nearly identical to rH3 control in all cases | nearly identical to rH3 control in all cases
2 | recombinant USP14 |  |  |  |  |  |  |  |  |  |  |  |  |  |  |  | only rMMP-9 possessed H3NT protease activity |  | 
